These are literature values, as cited in paper PMC11820047.

The term Kd denotes a measure of binding affinity in units of concentration.

Data set [1] has as its target EGFR (Homo sapiens) (UniProt P00533).
For data set [2] the target is unchanged. The source holds these as a separate data set.

Where two headings read alike, the source gives them in different places.

Regarding EGF (from UniProt P01133), in the data set with EGFR (Homo sapiens) [1], the equilibrium dissociation constant (Kd) was 2 nM. Regarding GE11, in the data set with EGFR (Homo sapiens) [2], the Kd is 22 nM.
